Measured values as given in US7122382.
One block for each substance: values may come before it.

Columns and labels:
[1] = molecular target: p53 (UniProt P02340); experiment: biotinylated row protein on streptavidin beads, 35S column protein counted
[2] = molecular target: Fos (UniProt P01101); experiment: as above
[3] = molecular target: SV40 large T (SV40) (UniProt P03070); experiment: as above
[4] = molecular target: Jun (UniProt P05627); experiment: as above
[5] = molecular target: luciferase [luciferase: P08659]; experiment: as above
Chain of luciferase [luciferase: P08659] (P08659 whole entry): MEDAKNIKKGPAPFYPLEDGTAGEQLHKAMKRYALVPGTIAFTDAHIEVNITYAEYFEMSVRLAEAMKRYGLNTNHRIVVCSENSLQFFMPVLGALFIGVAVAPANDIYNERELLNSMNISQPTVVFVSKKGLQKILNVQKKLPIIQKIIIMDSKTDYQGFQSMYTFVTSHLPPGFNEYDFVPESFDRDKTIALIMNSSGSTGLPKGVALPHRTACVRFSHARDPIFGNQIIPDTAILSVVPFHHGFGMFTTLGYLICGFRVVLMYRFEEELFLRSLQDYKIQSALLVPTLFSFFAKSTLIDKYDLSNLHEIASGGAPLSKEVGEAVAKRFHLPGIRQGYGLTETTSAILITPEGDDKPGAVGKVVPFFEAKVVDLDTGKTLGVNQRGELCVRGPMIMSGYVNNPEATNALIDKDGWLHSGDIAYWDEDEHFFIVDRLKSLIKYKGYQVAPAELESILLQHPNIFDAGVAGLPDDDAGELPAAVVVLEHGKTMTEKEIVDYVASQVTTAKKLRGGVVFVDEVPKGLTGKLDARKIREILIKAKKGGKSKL

[6] = molecular target: streptoavidin beads (UniProt P22629); experiment: five 35S-labelled proteins alone on streptavidin beads, no biotinylated protein
Chain of streptoavidin beads (P22629 37-163): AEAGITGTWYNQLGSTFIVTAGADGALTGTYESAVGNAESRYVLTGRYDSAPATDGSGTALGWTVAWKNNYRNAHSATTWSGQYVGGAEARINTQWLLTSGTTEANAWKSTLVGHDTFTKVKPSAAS

Chain of Jun (P05627 whole entry): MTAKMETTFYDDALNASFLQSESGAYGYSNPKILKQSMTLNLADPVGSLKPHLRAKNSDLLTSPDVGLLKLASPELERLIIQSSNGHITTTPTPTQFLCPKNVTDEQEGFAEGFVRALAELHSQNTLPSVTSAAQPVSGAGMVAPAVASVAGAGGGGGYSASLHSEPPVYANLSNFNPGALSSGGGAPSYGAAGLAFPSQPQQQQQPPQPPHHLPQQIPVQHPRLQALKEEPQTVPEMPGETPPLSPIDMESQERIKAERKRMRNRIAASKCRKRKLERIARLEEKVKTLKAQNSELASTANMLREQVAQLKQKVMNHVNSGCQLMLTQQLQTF
Chain of p53 (P02340 whole entry): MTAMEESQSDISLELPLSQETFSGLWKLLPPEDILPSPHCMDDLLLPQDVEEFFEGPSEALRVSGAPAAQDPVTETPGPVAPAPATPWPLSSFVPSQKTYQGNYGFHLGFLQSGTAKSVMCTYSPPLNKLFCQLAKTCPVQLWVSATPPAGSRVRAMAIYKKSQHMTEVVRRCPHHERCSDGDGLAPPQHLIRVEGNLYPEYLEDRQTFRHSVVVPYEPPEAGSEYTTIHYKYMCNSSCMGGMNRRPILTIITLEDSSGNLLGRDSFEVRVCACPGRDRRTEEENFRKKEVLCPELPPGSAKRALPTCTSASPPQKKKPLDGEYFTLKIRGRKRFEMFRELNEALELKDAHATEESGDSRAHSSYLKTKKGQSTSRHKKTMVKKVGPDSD
Chain of Fos (P01101 whole entry): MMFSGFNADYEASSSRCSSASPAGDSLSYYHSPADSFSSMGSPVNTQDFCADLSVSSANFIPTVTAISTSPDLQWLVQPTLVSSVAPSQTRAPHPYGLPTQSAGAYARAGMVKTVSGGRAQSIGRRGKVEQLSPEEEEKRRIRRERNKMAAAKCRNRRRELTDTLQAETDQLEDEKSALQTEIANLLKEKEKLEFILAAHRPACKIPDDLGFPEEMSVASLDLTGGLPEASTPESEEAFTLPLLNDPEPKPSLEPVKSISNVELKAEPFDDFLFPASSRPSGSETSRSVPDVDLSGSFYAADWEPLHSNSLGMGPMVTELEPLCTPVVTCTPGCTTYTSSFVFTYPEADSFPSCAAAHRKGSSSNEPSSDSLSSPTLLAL

RI (c.p.m.) [1]: 200 c.p.m.
Substance: p53 (from UniProt P02340 1-390)

Substance: SV40 large T (from UniProt P03070 1-708)
RI (c.p.m.) [2]: 197 c.p.m. | RI (c.p.m.) [3]: 551 c.p.m. | RI (c.p.m.) [4]: 197 c.p.m.

Substance: SV40 large T (from UniProt P03070 1-708) (other; other documents disagree on this pair)
RI (c.p.m.) [5]: 208 c.p.m. | RI (c.p.m.) [1]: 1400 c.p.m.

Substance: mixture of the five proteins of Reference Examples 1 and 2 (Fos, Jun, luciferase, SV40 large T, p53)
RI (cpm), background without biotinylated proteins [6]: 447 cpm
